Measured values reported in patent US20110118172A1 (Takeda / Millennium, published 2011).
Non-standard residues stand in square brackets, D forms with d. No end group written: not given here. *: point of attachment. benzylureido = benzylcarbamoyl on the N-terminal amino group, O=C(NCc1ccccc1)*; amidino = amidino group on the N-terminal amino group, N=C(N)*; Pro(trans-4-F) = O=C(O)[C@@H]1C[C@@H](F)CN1; Arg(Me) = CNC(=N)NCCC[C@H](N)C(=O)O; Dap(CONH2) = NC(=O)NC[C@H](N)C(=O)O; Hyp = O=C(O)[C@@H]1C[C@@H](O)CN1; Cha = N[C@@H](CC1CCCCC1)C(=O)O; dCha = N[C@H](CC1CCCCC1)C(=O)O; Decanoyl = CCCCCCCCCC(=O)*; Carbamoyl = NC(=O)*; azaGly = NNC(=O)O; Ms = CS(=O)(=O)*

B1: Compound No. 966: des(1)-Benzylureido-[D-Tyr2,Hyp3,Thr5,AzaGly7,Arg(Me)9,Trp10]MS10 (peptide)
peptide: benzylureido-[dY][Hyp]NTF[azaGly]L[Arg(Me)]W-NH2
SMILES: CNC(=N)NCCC[C@H](NC(=O)[C@H](CC(C)C)NC(=O)NNC(=O)[C@H](Cc1ccccc1)NC(=O)[C@@H](NC(=O)[C@H](CC(N)=O)NC(=O)[C@@H]1C[C@@H](O)CN1C(=O)[C@@H](Cc1ccc(O)cc1)NC(=O)NCc1ccccc1)[C@@H](C)O)C(=O)N[C@@H](Cc1c[nH]c2ccccc12)C(N)=O
B2: Compound No. 967: des(1)-Ureido-[D-Tyr2,Hyp3,Thr5,AzaGly7,Arg(Me)9,Trp10]MS10 (peptide)
peptide: Carbamoyl-[dY][Hyp]NTF[azaGly]L[Arg(Me)]W-NH2
SMILES: CNC(=N)NCCC[C@H](NC(=O)[C@H](CC(C)C)NC(=O)NNC(=O)[C@H](Cc1ccccc1)NC(=O)[C@@H](NC(=O)[C@H](CC(N)=O)NC(=O)[C@@H]1C[C@@H](O)CN1C(=O)[C@@H](Cc1ccc(O)cc1)NC(N)=O)[C@@H](C)O)C(=O)N[C@@H](Cc1c[nH]c2ccccc12)C(N)=O
B3: Compound No. 965: des(1)-decanoyl[D-Tyr2,Hyp3,Thr5,AzaGly7,Arg(Me)9,Trp10]MS10 (peptide)
peptide: Decanoyl-[dY][Hyp]NTF[azaGly]L[Arg(Me)]W-NH2
SMILES: CCCCCCCCCC(=O)N[C@H](Cc1ccc(O)cc1)C(=O)N1C[C@H](O)C[C@H]1C(=O)N[C@@H](CC(N)=O)C(=O)N[C@H](C(=O)N[C@@H](Cc1ccccc1)C(=O)NNC(=O)N[C@@H](CC(C)C)C(=O)N[C@@H](CCCNC(=N)NC)C(=O)N[C@@H](Cc1c[nH]c2ccccc12)C(N)=O)[C@@H](C)O
B4: Compound No. 977: des(1-2)-[Hyp3,Thr5,AzaGly7,Arg(Me)9,Trp10]MS10 (peptide)
peptide: [Hyp]NTF[azaGly]L[Arg(Me)]W-NH2
modifications: N-terminus assumed
SMILES: CNC(=N)NCCC[C@H](NC(=O)[C@H](CC(C)C)NC(=O)NNC(=O)[C@H](Cc1ccccc1)NC(=O)[C@@H](NC(=O)[C@H](CC(N)=O)NC(=O)[C@@H]1C[C@@H](O)CN1)[C@@H](C)O)C(=O)N[C@@H](Cc1c[nH]c2ccccc12)C(N)=O
B5: Compound No. 963: des(1)-Ms-[D-Tyr2,Hyp3,Thr5,AzaGly7,Arg(Me)9,Trp10]MS10 (peptide)
peptide: Ms-[dY][Hyp]NTF[azaGly]L[Arg(Me)]W-NH2
SMILES: CNC(=N)NCCC[C@H](NC(=O)[C@H](CC(C)C)NC(=O)NNC(=O)[C@H](Cc1ccccc1)NC(=O)[C@@H](NC(=O)[C@H](CC(N)=O)NC(=O)[C@@H]1C[C@@H](O)CN1C(=O)[C@@H](Cc1ccc(O)cc1)NS(C)(=O)=O)[C@@H](C)O)C(=O)N[C@@H](Cc1c[nH]c2ccccc12)C(N)=O
B6: Compound No. 971: des(1)-Amidino-[D-Tyr2,Hyp3,Thr5,AzaGly7,Arg(Me)9,Trp10]MS10 (peptide)
peptide: amidino-[dY][Hyp]NTF[azaGly]L[Arg(Me)]W-NH2
SMILES: CNC(=N)NCCC[C@H](NC(=O)[C@H](CC(C)C)NC(=O)NNC(=O)[C@H](Cc1ccccc1)NC(=O)[C@@H](NC(=O)[C@H](CC(N)=O)NC(=O)[C@@H]1C[C@@H](O)CN1C(=O)[C@@H](Cc1ccc(O)cc1)NC(=N)N)[C@@H](C)O)C(=O)N[C@@H](Cc1c[nH]c2ccccc12)C(N)=O

target: metastin receptor (OT7T175) stably expressed on CHO cells; assay: cell-based or functional assay

Binder	Specific Activity: EC50 of the test compound based on EC50 of Metastin (45-54); agonist activity by change in intracellular calcium ion level (Fluo-4 NW, FLIPR) in receptor-expressing CHO cells
B1	1.9 ratio
Ac-[dY][Pro(trans-4-F)]NT[Cha][azaGly]L[Arg(Me)]W-NH2 [Compound No. 970: des(1)-Ac-[D-Tyr2,Pro(4F)3,Thr5,Cha6,AzaGly7,Arg(Me)9,Trp10]MS10]	0.6 ratio
B2	0.6 ratio
B3	4.1 ratio
Ac-[dY][Hyp][Dap(CONH2)]T[Cha]G[dL][Arg(Me)]W-NH2 (also: Gly7-D-Leu8 -CONH- replaced by (E)-CH=CH-) [Compound No. 976: des(1)-Ac-[D-Tyr2,Hyp3,Alb4,Thr5,Cha6,Gly7ψ((E)CH=CH)D-Leu8,Arg(Me)9,Trp10]MS10]	1 ratio
Ac-[dY][Hyp]NT[Cha][azaGly]L[Arg(Me)]W-NH2 [Compound No. 969: des(1)-Ac-[D-Tyr2,Hyp3,Thr5,Cha6,AzaGly7,Arg(Me)9,Trp10]MS10]	0.3 ratio
B4	1.7 ratio
Ac-[dY][Hyp][Dap(CONH2)]T[dCha]GL[Arg(Me)]W-NH2 (also: Gly7-Leu8 -CONH- replaced by (E)-CH=CH-) [Compound No. 975: des(1)-Ac-[D-Tyr2,Hyp3,Alb4,Thr5,D-Cha6,Gly7ψ((E)CH=CH)Leu8,Arg(Me)9,Trp10]MS10]	2.3 ratio
B5	0.9 ratio
B6	0.4 ratio
Ac-[dY][Hyp][Dap(CONH2)]T[Cha]GL[Arg(Me)]W-NH2 (also: Gly7-Leu8 -CONH- replaced by (E)-CMe=CH-) [Compound No. 986: des(1)-Ac-[D-Tyr2,Hyp3,Alb4,Thr5,Cha6,Gly7ψ((E)CMe=CH)Leu8,Arg(Me)9,Trp10]MS10]	0.3 ratio
